Reference: US20210315969A1, “GLYCOPROTEINS HAVING LIPID MOBILIZING PROPERTIES AND THERAPEUTIC USES THEREOF” (Aston University, priority 2008, published 2021)

Assays:
murine myotubes = assay: Protein degradation and synthesis in myotubes subjected to high glucose; type: cell-based
Description: FIGS. 18A and 18B is a graphical diagram showing phenylalanine release (FIG. 18A) and protein synthesis (FIG. 18B) in C2Cl2 myotubes treated with and without ZAG for 4 h in the presence of various concentrations of glucose. Statistically significant c, P<0.001 from control; f, P<0.001 from glucose alone.
Statistically significant b, P<0.01 and c, P<0.001 from control; e, P<0.05 and f, P<0.001 from glucose alone.
Statistically significant b, P<0.01 and c, P<0.001 from control; e, P<0.05 and f, P<:0.001 from glucose alone; I, P<0.001 from glucose+SR.
This utilizes murine myotubes subjected. to high concentrations of glucose (10 or 25 mM).

[1] = tested on: adipocytes and gastrocnemius muscle; assay: Glucose uptake into adipocytes and gastrocnemius muscle of ob/ob mice treated with ZAG; type: in vivo; conditions: presence of low (1 nM) insulin
Description: Glucose (intake into Atlipocpyes Isolated adipocytes (5×10^4) were washed twice in 1 ml Krebs-Ringer bicarbonate buffer, pH 7.2 (KRBS) and further incubated for 10 min at room temperature in 0.5 ml KRBS containing 18.5MBq […]-^14CI deoxy-D-glucose and non-radioactive 2-deoxy-D-glucose to a final concentration of 0.1 mM. Uptake was terminated by the addition of 1 ml ice-cold glucose-free KRBS, and the cells were washed three times with 1 ml KRBS, lysed by addition of 0.5 ml 1 M NaOH and left for at least 1 h at room temperature before the radioactivity was determined by liquid scintillation counting.
Glucose Uptake into Gostrocneinius Muscle—Gastrocnemius muscles were incubated in Krebs-Henseleit bicarbonate butler for 45 min at 37° C. and then incubated for a further 10 min in 5 ml Krebs-Henseleit butler containing 185M Bq 2-[1-^14C]deoxy-D-glucose and non-radioactive 2-deoxy-D-glucose to a final concentration of 0.1 mM. The muscles were then removed and washed in 0.9% NaCl for 5 min followed by dissolution in 0.5 ml 1M NaOH and the radioactivity was determined by liquid scintillation counting.

[2] = Interval administration / pilot scheduling study of ZAG in ob/ob mice; type: in vivo
Description: While not wanting to be limited by theory, it may be that the subjects are receiving too much ZAG or that there is receptor desensitization as is seen with TNF. A pilot study was performed with 2 mice in each group to determine optimal scheduling of ZAG delivery.

adipocytes [3] = assay: Expression of phospho HSL / HSL in adipocytes incubated 3 h with ZAG or isoprenaline; type: cell-based, mice; conditions: 3 h; isoprenaline 10 μM or ZAG 0.46 μM
adipocytes [4] = assay: Lipolytic responsiveness of adipocytes from ZAG treated ob/ob mice to isoprenaline or BRL37344; type: in vivo
From the text: FIG. 5K is a graphical diagram showing the response of adipocytes from epididymal (ep), subcutaneous (sc) and visceral (vis) deposits from ob/ob mice treated with either PBS or ZAG for 5 days to the lipolytic effect of BRI,37344, Differences from PBS controls are indicated as *** p<0.01, while differences in the presence of PD98059 is shown as # p<0.001.
FIG. 9 is a graphical diagram showing glycerol release stimulated by isoprenaline (iso) isolated adipocytes which have been in culture up to 5 days from ob mice treated with and without ZAG.
Lipolytic Assay—Samples to be assayed were incubated with 10^5 to 2×10^5 adipocytes for 2 h in 1 ml Krebs-Ringer bicarbonate buffer, pH 7.2. The concentration of glycerol released was determined enzymatically by the method of Wieland (Wieland, O. Glycerol UV method. In Methods of Enzymatic Analysis (ed. Bergmeyer, H. U.) (Academic Press, London, UK, pp 1404-1409, 1974)). Control samples containing adipocytes alone were analysed to determine the spontaneous glycerol release. Activity was expressed as nmol glycerol released/10^5 adipocytes/2 h.
Adipocytes were removed from mice after 5 days of ZAG and their responsiveness to isoprenaline (iso) was measured after culture in the absence of ZAG (FIG. 9), The responsiveness to iso is higher in ZAG treated mice and this continues for a further 4 days (Which was when expression of ZAG and HSL were increased) and then falls on day 5 (when expression was not increased) down to values of PBS control.
The data shown in Attachment 1 is from a 5 day study where ZAG was administered at 35 μg per day i.v. on a daily basis for 5 days. At the end of the experiment tissues were removed and blotted, or functional assays were carried out with isolated adipocytes. […] When ep adipocytes were prepared and maintained in tissue culture (RPMI 1640 ±10% FCS) ZAG expression was maintained for a further 3 days, even though no ZAG was added to the culture medium (FIG. 6B). […] In fact, as discussed above, too much ZAG is more likely to lead to resistance rather than an increased response.

[5] = ZAG i.v. administration to ob/ob mice, 5 day study (body weight, temperature, plasma metabolites); type: in vivo
Description: Animals—Mice—Homozygous obese (ob/ob) mice from the colony maintained at Aston University were used in the present study. The origin and characteristics of Aston ob/ob mice have been previously described. Male mice (20-21 weeks old, weight 90-100 g) were grouped into three per cage in an air conditioned room at 22 ±2° C. with a 12 h-light:12 h-dark cycle and fed a rat and mouse breeding diet (Special Diet Services, Witham, UK) and tap water ad libitum. They were administered ZAG (35 μg) in PBS (100 μl) b.d. by i.v. administration and body weight and food and water intake were monitored daily. Control mice received PBS alone. Body temperature was measured daily by the use of a rectal thermometer (RS Components, Northants, UK). All animal experiments were carried out in accordance with the U.K. Animals (Scientific Procedures) Act 1986.
Serum Metabolite Determinations—Non-esterified fatty acids (NEFA) were determined using a Wako-ASC-ACOD kit (Wako Chemical GmbH, Neuss, Germany). Triglycerides were determined using a Triglyceride kit (Sigma Chemical Co., Poole, United Kingdom) and 3-hydroxybutyrate by a quantitative enzymatic determination kit (Sigma). Glucose was measured using a glucose analyser (Beckman, Irvine, Calif.) and glycerol was determined enzymatically using the method of Wieland as described in “Methods of Enzymatic Analysis” (Ed, Bergmeyer, H. U.) Vol. 3, pp1404-1409, published by Academic Press, London (1974).

[6] = ob/ob mice treated for 120 h, wet weight

B1: Zinc-α2-glycoprotein (protein, listed as Homo sapiens)
chain: QENQDGRYSLTYIYTGLSKHVEDVPAFQALGSLNDLQFFRYNSKDRKSQPMGLWRQVEGMEDWKEDSQLQKAREDMETLKDIVEYYNDSNGSHVLQGRFGCEIENNRSSGAFWKYYYDGKDYIEFNKEIPAWVPFDPAAQITKQKWEAEPVYVQRAKAYLEEECPATLRKYLKYSKNILDRQDPPSVVVTSHQAPGEKKKLKCLAYDFYPGKIDVHWTRAGQVQEPELRGDVLHNGNGTYQSWVVVAVPPQDTAPYSCHVQHSSLAQPLVVPWEAS
notes: recombinant human Zinc-α2-glycoprotein, lipid mobilizing factor, expressed in HEK293F cells
high glucose induced increase in protein degradation and depression of protein synthesis (murine myotubes; ZAG 2.5 μg/ml, glucose 10 or 25 mM): completely attenuated | protein degradation induced by 10 and 25 mM glucose (murine myotubes; myotubes): attenuated | glucose uptake into epididymal and visceral adipocytes [1]: also increased glucose uptake | weight loss on long-term daily administration [2]: cessation of weight loss | weight loss with break of 3-4 days followed by re-infusion [2]: continued weight loss | expression of phospho HSL in adipocytes (adipocytes [3]): increased expression of phospho HISL | responsiveness of adipocytes to isoprenaline (adipocytes [4]; adipocytes from mice after 5 days ZAG, cultured in absence of ZAG): higher | lipolytic response of epididymal adipocytes to the β3 agonist BRL37344 (adipocytes [4]; adipocytes from mice treated 5 days): increased lipolytic response | time the increased response to isoprenaline was maintained in tissue culture (adipocytes [4]; isoprenaline 10 μM, absence of ZAG): 4 days | BAT ([5]; ob/ob mice treated for 120 h): 0.73 ± 0.12 p < 0.01 g | NEFA (plasma) ([5]; ob/ob mice treated for 120 h): 0.73 ± 0.05 p < 0.001 mEq/L | TG (plasma) ([5]; ob/ob mice treated for 120 h): 0.9 ± 0.1 p < 0.05 mmol/L | Gastrocncinius [5, 6]: 1.12 ± 0.14 p < 0.01 g | Soleus [5, 6]: 0.80 ± 0.09 p < 0.01 g | rise of body temperature ([5]; ob/ob mice, after 4 days of ZAG administration): 0.4 °C | weight difference between the groups ([5]; ob/ob mice, after 5 days, ZAG vs PBS): 3.5 g
